According to US20110092681A1:
Values joined by “and” are separate entries in the source; they are usually repeats but may differ in a detail not shown here. Equal values may be shown once.

Molecular target: rFVIII (recombinant Factor VIII) (UniProt P00451)
Experiment: ELISA chromogenic assay (ECA): rFVIII incubated with rVWF, complex captured on anti-VWF antibody, bound FVIII read by chromogenic assay

FVIII binding (%): 51.7% and 64.6% and 63.1%
Substance: human recombinant VWF (rVWF) (from UniProt P04275 764-2813)
